Laboratory results: CN115141270A (SHENZHEN KANGMAI BIOTECHNOLOGY CO LTD, dated 2022)

How the values were obtained:
[1] = molecular target: T1, SARS-CoV-2 RBD结构域蛋白 (序列来自NC_045512.2, 自行表达) (SARS-CoV-2, UniProt P0DTC2 319-541); test: ELISA, RBD domain protein coated at 2 μg/ml, antibody titrated from 10 μg/mL
T1 construct: domain: RBD

[2] = molecular target: T2, SARS-CoV-2 S蛋白(ECD) (购自金斯瑞, Z03481) (SARS-CoV-2, UniProt P0DTC2 14-1213); test: ELISA, S protein (ECD) coated at 2 μg/ml, antibody titrated from 10 μg/mL
T2 construct: extracellular domain

[3] = molecular target: SARS-CoV-2 (中国新型冠状病毒, MT226610) live virus, spike glycoprotein (SARS-CoV-2); test: cell-based or functional assay
[4] = molecular target: T2, SARS-CoV-2 S蛋白(ECD) (购自金斯瑞, Z03481)

B1: 抗体nCoV617 (anti-coronavirus spike glycoprotein human monoclonal antibody) (antibody, V domains shown)
VH: QVQLVESGGGVVQPGRSLRLSCAASGFTFSSYAMHWVRQAPGKGLEWVALISYDGSNKYYADSVKGRFTISRDNSKNTLYLQMNSLRAEDTAVYYCARGLGLRFLEWPISSYWGQGTLVTVSS
VL: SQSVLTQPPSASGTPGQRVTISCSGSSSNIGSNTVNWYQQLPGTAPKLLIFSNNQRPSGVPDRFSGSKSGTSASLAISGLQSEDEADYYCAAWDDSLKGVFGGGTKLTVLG
notes: also called 抗S蛋白抗体; 抗冠状病毒刺突糖蛋白单克隆抗体
- EC50 [1]: 3 ng/mL
- EC50 [2]: 2 ng/mL
- IC50 (neutralisation of live virus on Vero E6 cells, cytopathic effect) [3]: 2.3 ng/mL
- Kd [4]: 8.02 nM
